For the test, the target named is T1, recombinant mouse neuropilin-1 (C-6His, #C11R; NRP-1) (mouse, UniProt P97333 22-856).
T1 sequence (looked up): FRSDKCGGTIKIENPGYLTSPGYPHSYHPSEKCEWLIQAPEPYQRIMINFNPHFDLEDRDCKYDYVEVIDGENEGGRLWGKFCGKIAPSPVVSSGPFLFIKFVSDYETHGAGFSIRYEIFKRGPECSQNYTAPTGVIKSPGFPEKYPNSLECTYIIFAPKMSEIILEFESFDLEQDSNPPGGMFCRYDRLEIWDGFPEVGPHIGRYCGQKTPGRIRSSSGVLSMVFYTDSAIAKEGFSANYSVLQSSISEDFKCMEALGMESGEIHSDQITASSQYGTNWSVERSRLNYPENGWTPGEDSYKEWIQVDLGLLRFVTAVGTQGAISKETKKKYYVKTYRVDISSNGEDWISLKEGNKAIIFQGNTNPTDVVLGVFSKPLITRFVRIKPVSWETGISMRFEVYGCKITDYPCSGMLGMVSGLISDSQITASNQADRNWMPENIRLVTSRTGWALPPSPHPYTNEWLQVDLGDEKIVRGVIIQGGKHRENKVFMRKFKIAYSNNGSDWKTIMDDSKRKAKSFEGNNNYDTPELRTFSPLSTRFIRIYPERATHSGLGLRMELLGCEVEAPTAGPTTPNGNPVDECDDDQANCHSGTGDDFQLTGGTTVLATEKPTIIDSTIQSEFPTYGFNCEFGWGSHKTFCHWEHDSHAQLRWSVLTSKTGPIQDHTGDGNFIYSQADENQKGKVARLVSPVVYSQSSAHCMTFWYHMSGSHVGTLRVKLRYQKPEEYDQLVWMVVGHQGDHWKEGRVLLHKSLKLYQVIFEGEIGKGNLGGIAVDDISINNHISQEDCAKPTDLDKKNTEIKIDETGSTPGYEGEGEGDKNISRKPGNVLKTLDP
The test can be described thus: SPR. For orientation: SPR reads the build-up and loss of mass on a sensor chip optically.

1 molecule from paper PMC11933685 (Nature Communications, 2025) can be followed below.

The term Kd denotes the constant that tells how readily two partners part at equilibrium. As for CGNKRTR [cancer homing peptide (CHP, CGNKRTR), free peptide], the Kd was determined as 6.49 µM.
